The chains are these.
B1: P. aeruginosa RdgC K146A mutant (natural protein, Pseudomonas aeruginosa PAO1, UniProt Q9HYX7 1-306, looked up)
chain: MWFRNLLVYRLTQDLQLDADSLEKALGEKSARPCASQELTTYGFTAPFGKGPDAPLVHVSQDFFLISARKEERILPGSVVRDALKEKVDEIEAQQMRKVYKKERDQLKDEIVQTLLPRAFIRRSSTFAAIAPSLGLILVDSASAKAAEDLLSTLREALGSLPVRPLSVKVAPTATLTDWVKTQEAAGDFHVLDECELRDTHEDGGVVRCKRQDLTSEEIQLHLTAGKLVTQLSLAWSDKLSFVLDDKLAVKRLRFEDLLQEQAEKDGGEDALGQLDASFTLMMLTFAEFLPALFEALGGEEIPQGV
B2: P. aeruginosa RdgC Q212A mutant (natural protein, Pseudomonas aeruginosa PAO1, UniProt Q9HYX7 1-306, looked up)
chain: MWFRNLLVYRLTQDLQLDADSLEKALGEKSARPCASQELTTYGFTAPFGKGPDAPLVHVSQDFFLISARKEERILPGSVVRDALKEKVDEIEAQQMRKVYKKERDQLKDEIVQTLLPRAFIRRSSTFAAIAPSLGLILVDSASAKKAEDLLSTLREALGSLPVRPLSVKVAPTATLTDWVKTQEAAGDFHVLDECELRDTHEDGGVVRCKRADLTSEEIQLHLTAGKLVTQLSLAWSDKLSFVLDDKLAVKRLRFEDLLQEQAEKDGGEDALGQLDASFTLMMLTFAEFLPALFEALGGEEIPQGV
B3: P. aeruginosa RdgC R122D mutant (natural protein, Pseudomonas aeruginosa PAO1, UniProt Q9HYX7 1-306, looked up)
chain: MWFRNLLVYRLTQDLQLDADSLEKALGEKSARPCASQELTTYGFTAPFGKGPDAPLVHVSQDFFLISARKEERILPGSVVRDALKEKVDEIEAQQMRKVYKKERDQLKDEIVQTLLPRAFIDRSSTFAAIAPSLGLILVDSASAKKAEDLLSTLREALGSLPVRPLSVKVAPTATLTDWVKTQEAAGDFHVLDECELRDTHEDGGVVRCKRQDLTSEEIQLHLTAGKLVTQLSLAWSDKLSFVLDDKLAVKRLRFEDLLQEQAEKDGGEDALGQLDASFTLMMLTFAEFLPALFEALGGEEIPQGV
B4: P. aeruginosa RdgC R211D mutant (natural protein, Pseudomonas aeruginosa PAO1, UniProt Q9HYX7 1-306, looked up)
chain: MWFRNLLVYRLTQDLQLDADSLEKALGEKSARPCASQELTTYGFTAPFGKGPDAPLVHVSQDFFLISARKEERILPGSVVRDALKEKVDEIEAQQMRKVYKKERDQLKDEIVQTLLPRAFIRRSSTFAAIAPSLGLILVDSASAKKAEDLLSTLREALGSLPVRPLSVKVAPTATLTDWVKTQEAAGDFHVLDECELRDTHEDGGVVRCKDQDLTSEEIQLHLTAGKLVTQLSLAWSDKLSFVLDDKLAVKRLRFEDLLQEQAEKDGGEDALGQLDASFTLMMLTFAEFLPALFEALGGEEIPQGV
B5: P. aeruginosa RdgC R4A mutant (natural protein, Pseudomonas aeruginosa PAO1, UniProt Q9HYX7 1-306, looked up)
chain: MWFANLLVYRLTQDLQLDADSLEKALGEKSARPCASQELTTYGFTAPFGKGPDAPLVHVSQDFFLISARKEERILPGSVVRDALKEKVDEIEAQQMRKVYKKERDQLKDEIVQTLLPRAFIRRSSTFAAIAPSLGLILVDSASAKKAEDLLSTLREALGSLPVRPLSVKVAPTATLTDWVKTQEAAGDFHVLDECELRDTHEDGGVVRCKRQDLTSEEIQLHLTAGKLVTQLSLAWSDKLSFVLDDKLAVKRLRFEDLLQEQAEKDGGEDALGQLDASFTLMMLTFAEFLPALFEALGGEEIPQGV
B6: P. aeruginosa RdgC K70D mutant (natural protein, Pseudomonas aeruginosa PAO1, UniProt Q9HYX7 1-306, looked up)
chain: MWFRNLLVYRLTQDLQLDADSLEKALGEKSARPCASQELTTYGFTAPFGKGPDAPLVHVSQDFFLISARDEERILPGSVVRDALKEKVDEIEAQQMRKVYKKERDQLKDEIVQTLLPRAFIRRSSTFAAIAPSLGLILVDSASAKKAEDLLSTLREALGSLPVRPLSVKVAPTATLTDWVKTQEAAGDFHVLDECELRDTHEDGGVVRCKRQDLTSEEIQLHLTAGKLVTQLSLAWSDKLSFVLDDKLAVKRLRFEDLLQEQAEKDGGEDALGQLDASFTLMMLTFAEFLPALFEALGGEEIPQGV
B7: P. aeruginosa RdgC R208A mutant (natural protein, Pseudomonas aeruginosa PAO1, UniProt Q9HYX7 1-306, looked up)
chain: MWFRNLLVYRLTQDLQLDADSLEKALGEKSARPCASQELTTYGFTAPFGKGPDAPLVHVSQDFFLISARKEERILPGSVVRDALKEKVDEIEAQQMRKVYKKERDQLKDEIVQTLLPRAFIRRSSTFAAIAPSLGLILVDSASAKKAEDLLSTLREALGSLPVRPLSVKVAPTATLTDWVKTQEAAGDFHVLDECELRDTHEDGGVVACKRQDLTSEEIQLHLTAGKLVTQLSLAWSDKLSFVLDDKLAVKRLRFEDLLQEQAEKDGGEDALGQLDASFTLMMLTFAEFLPALFEALGGEEIPQGV
B8: P. aeruginosa RdgC R252A mutant (natural protein, Pseudomonas aeruginosa PAO1, UniProt Q9HYX7 1-306, looked up)
chain: MWFRNLLVYRLTQDLQLDADSLEKALGEKSARPCASQELTTYGFTAPFGKGPDAPLVHVSQDFFLISARKEERILPGSVVRDALKEKVDEIEAQQMRKVYKKERDQLKDEIVQTLLPRAFIRRSSTFAAIAPSLGLILVDSASAKKAEDLLSTLREALGSLPVRPLSVKVAPTATLTDWVKTQEAAGDFHVLDECELRDTHEDGGVVRCKRQDLTSEEIQLHLTAGKLVTQLSLAWSDKLSFVLDDKLAVKALRFEDLLQEQAEKDGGEDALGQLDASFTLMMLTFAEFLPALFEALGGEEIPQGV
B9: P. aeruginosa RdgC R198A mutant (natural protein, Pseudomonas aeruginosa PAO1, UniProt Q9HYX7 1-306, looked up)
chain: MWFRNLLVYRLTQDLQLDADSLEKALGEKSARPCASQELTTYGFTAPFGKGPDAPLVHVSQDFFLISARKEERILPGSVVRDALKEKVDEIEAQQMRKVYKKERDQLKDEIVQTLLPRAFIRRSSTFAAIAPSLGLILVDSASAKKAEDLLSTLREALGSLPVRPLSVKVAPTATLTDWVKTQEAAGDFHVLDECELADTHEDGGVVRCKRQDLTSEEIQLHLTAGKLVTQLSLAWSDKLSFVLDDKLAVKRLRFEDLLQEQAEKDGGEDALGQLDASFTLMMLTFAEFLPALFEALGGEEIPQGV
B10: P. aeruginosa RdgC R81D mutant (natural protein, Pseudomonas aeruginosa PAO1, UniProt Q9HYX7 1-306, looked up)
chain: MWFRNLLVYRLTQDLQLDADSLEKALGEKSARPCASQELTTYGFTAPFGKGPDAPLVHVSQDFFLISARKEERILPGSVVDDALKEKVDEIEAQQMRKVYKKERDQLKDEIVQTLLPRAFIRRSSTFAAIAPSLGLILVDSASAKKAEDLLSTLREALGSLPVRPLSVKVAPTATLTDWVKTQEAAGDFHVLDECELRDTHEDGGVVRCKRQDLTSEEIQLHLTAGKLVTQLSLAWSDKLSFVLDDKLAVKRLRFEDLLQEQAEKDGGEDALGQLDASFTLMMLTFAEFLPALFEALGGEEIPQGV
B11: P. aeruginosa RdgC F120A mutant (natural protein, Pseudomonas aeruginosa PAO1, UniProt Q9HYX7 1-306, looked up)
chain: MWFRNLLVYRLTQDLQLDADSLEKALGEKSARPCASQELTTYGFTAPFGKGPDAPLVHVSQDFFLISARKEERILPGSVVRDALKEKVDEIEAQQMRKVYKKERDQLKDEIVQTLLPRAAIRRSSTFAAIAPSLGLILVDSASAKKAEDLLSTLREALGSLPVRPLSVKVAPTATLTDWVKTQEAAGDFHVLDECELRDTHEDGGVVRCKRQDLTSEEIQLHLTAGKLVTQLSLAWSDKLSFVLDDKLAVKRLRFEDLLQEQAEKDGGEDALGQLDASFTLMMLTFAEFLPALFEALGGEEIPQGV
B12: Pseudomonas aeruginosa RdgC (recombination-associated DNA-binding protein), wild type (natural protein, Pseudomonas aeruginosa PAO1, UniProt Q9HYX7 1-306, looked up)
chain: MWFRNLLVYRLTQDLQLDADSLEKALGEKSARPCASQELTTYGFTAPFGKGPDAPLVHVSQDFFLISARKEERILPGSVVRDALKEKVDEIEAQQMRKVYKKERDQLKDEIVQTLLPRAFIRRSSTFAAIAPSLGLILVDSASAKKAEDLLSTLREALGSLPVRPLSVKVAPTATLTDWVKTQEAAGDFHVLDECELRDTHEDGGVVRCKRQDLTSEEIQLHLTAGKLVTQLSLAWSDKLSFVLDDKLAVKRLRFEDLLQEQAEKDGGEDALGQLDASFTLMMLTFAEFLPALFEALGGEEIPQGV

One data set concerns the molecule itself. The data set is described as follows: SEC. For orientation: Size exclusion chromatography separates by hydrodynamic size, large species first.
As for B1, the binding result was “binds”.
Still for that read-out and setting: in the case of B2 it was “binds”.
Still for that read-out and setting: in the case of B3 it was “binds”; in that of B4, “binds”; in that of B5, “binds”.
Take B6: the binding result is “binds”.
Still for that read-out and setting: as for B7, the entry is “binds”.
With B8, the binding result was “binds”.
With B9, the binding result is given as “binds”.
In the case of B10, the binding result is “binds”.
Take B11: the binding result is on record as “binds”.

The next data set deals with the molecule itself. The data set is described as follows: crystal structure.
With B12, the stoichiometry N (commonly the number of molecules, sites or subunits per partner or assembly) came to 2.

The record behind these values is PMC1885664 (Nucleic Acids Research, 2007).
